In article doi:10.1101/2024.11.07.622398:

How the values were obtained:
[1] = biological target: His-GST-tagged UBA7(U1) chimera (bovine | human) (UniProt P22314); assay: BLI
[2] = biological target: His-GST-tagged bovine UBA7(eCCL) (bovine); assay: BLI
bovine UBA7 (bovine) [3] = biological target: bovine UBA7 (bovine)
bovine UBA7 (bovine) [4] = assay: SEC-MALS
[5] = biological target: His-GST-tagged bovine UBA7(C597A) (bovine); assay: BLI

Chain of His-GST-tagged UBA7(U1) chimera (bovine | human) (P22314 whole entry, change not shown): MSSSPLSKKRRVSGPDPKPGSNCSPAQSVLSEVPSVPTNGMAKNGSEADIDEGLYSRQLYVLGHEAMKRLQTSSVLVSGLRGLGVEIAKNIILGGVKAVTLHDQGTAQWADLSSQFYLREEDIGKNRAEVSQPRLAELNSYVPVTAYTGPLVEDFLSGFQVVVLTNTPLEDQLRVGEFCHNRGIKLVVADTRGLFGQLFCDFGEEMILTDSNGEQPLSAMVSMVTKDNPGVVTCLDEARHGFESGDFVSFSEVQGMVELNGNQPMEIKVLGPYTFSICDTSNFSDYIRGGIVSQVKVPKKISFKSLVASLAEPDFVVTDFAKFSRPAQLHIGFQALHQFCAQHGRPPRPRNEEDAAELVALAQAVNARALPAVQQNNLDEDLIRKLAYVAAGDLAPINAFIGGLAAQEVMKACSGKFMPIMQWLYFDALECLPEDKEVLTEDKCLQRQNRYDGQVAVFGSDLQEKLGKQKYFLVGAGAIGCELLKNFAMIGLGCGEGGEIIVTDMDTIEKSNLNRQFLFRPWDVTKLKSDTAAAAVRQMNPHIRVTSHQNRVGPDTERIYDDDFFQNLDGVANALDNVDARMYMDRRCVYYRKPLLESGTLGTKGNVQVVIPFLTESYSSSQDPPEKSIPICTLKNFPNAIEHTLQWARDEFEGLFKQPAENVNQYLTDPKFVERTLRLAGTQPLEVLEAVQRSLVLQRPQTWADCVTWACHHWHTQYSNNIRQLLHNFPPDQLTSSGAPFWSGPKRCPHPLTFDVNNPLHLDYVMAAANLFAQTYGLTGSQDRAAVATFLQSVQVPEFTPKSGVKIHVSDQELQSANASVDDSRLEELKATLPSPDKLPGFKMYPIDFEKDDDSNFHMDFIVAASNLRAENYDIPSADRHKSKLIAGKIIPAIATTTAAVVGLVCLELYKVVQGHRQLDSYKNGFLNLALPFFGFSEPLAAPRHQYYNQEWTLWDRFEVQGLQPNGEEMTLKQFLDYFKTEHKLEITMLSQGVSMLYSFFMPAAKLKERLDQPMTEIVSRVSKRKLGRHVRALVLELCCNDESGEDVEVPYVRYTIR

| Substance | Kd [1] | Kd [2] | KM of disulfide complex formation (UBA7 titrated with UBE2L6, SDS-PAGE kinetics) (bovine UBA7 (bovine) [3]) | stoichiometry N (bovine UBA7 (bovine) [4]) | Kd [5] |
| --- | --- | --- | --- | --- | --- |
| bovine UBE2L6(C86A) (from UniProt A5PJC4 1-153) (enzyme) | 48 µM | 4 µM |  |  |  |
| bovine UBE2L6 (from UniProt A5PJC4 1-153) (enzyme) |  |  | 1.3 µM | 1 | 1.2 µM |
